For data set [1], the system named is TALE test backbone, repeat 5 RVD AE (synthetic (Xanthomonas TALE)). As to conditions: ELISA. For orientation: An ELISA detects its analyte on a solid surface through an enzyme-linked reagent.
Data set [2] deals with TALE test backbone, repeat 5 RVD AN (synthetic (Xanthomonas TALE)). Conditions: ELISA.
Data set [3] has as its system TALE test backbone, repeat 5 RVD SN (synthetic (Xanthomonas TALE)). Conditions: ELISA.
The test system of data set [4] is TALE test backbone, repeat 5 RVD IG (synthetic (Xanthomonas TALE)). As to conditions: ELISA.
The subject of data set [5] is TALE test backbone, repeat 5 RVD TA (synthetic (Xanthomonas TALE)). As to conditions: ELISA.
The test system of data set [6] is TALE test backbone, repeat 5 RVD DK (synthetic (Xanthomonas TALE)). As to conditions: ELISA.
In data set [7] the test system is TALE test backbone, repeat 5 RVD DH (synthetic (Xanthomonas TALE)). As to conditions: ELISA.
Data set [8] concerns TALE test backbone, repeat 5 RVD AD (synthetic (Xanthomonas TALE)). Conditions: ELISA.
The test system of data set [9] is TALE test backbone, repeat 5 RVD TP (synthetic (Xanthomonas TALE)). As to conditions: ELISA.
The test system of data set [10] is TALE test backbone, repeat 5 RVD IA (synthetic (Xanthomonas TALE)). Conditions: ELISA.
Data set [11] concerns TALE test backbone, repeat 5 RVD KT (synthetic (Xanthomonas TALE)). As to conditions: ELISA.
Data set [12] concerns TALE test backbone, repeat 5 RVD NG (Xanthomonas sp. (engineered)). Conditions: RVD NG.
Data set [13] has as its system TALE test backbone, repeat 5 RVD KS (synthetic (Xanthomonas TALE)). As to conditions: ELISA.
Data set [14] has as its system TALE test backbone, repeat 5 RVD RI (synthetic (Xanthomonas TALE)). As to conditions: ELISA.
In data set [15] the test system is TALE test backbone, repeat 5 RVD AT (synthetic (Xanthomonas TALE)). As to conditions: ELISA.
Data set [16] concerns TALE test backbone, repeat 5 RVD KG (synthetic (Xanthomonas TALE)). Conditions: ELISA.
Data set [17] concerns TALE test backbone, repeat 5 RVD YG (synthetic (Xanthomonas TALE)). As to conditions: ELISA.

“TTGACCATCCT (double strand) [CCA target]”: the binding signal (normalized ELISA) in [1] was determined as 0; in data set [2], 0; in [3] it was 0.01; in data set [4], 0.02; in data set [5], 0.2; in [6], 0. For the same sequence, the binding signal (normalized ELISA) in [7] is 0.01; in [8] it was 0.4; in data set [9], 0.2; in data set [10] it was 0.24; in data set [11], 0.81; in data set [12], 0.14. Besides, the binding signal (normalized ELISA) in [13] was determined as 0.78; in [14], 0.05; in data set [15], 0.58; in data set [16], 0.27; in data set [17], 0.02.

Values taken from patent publication US20110301073.
